Publication doi:10.1101/2025.09.11.675134, “Biodistribution-Driven Discovery Identifies a Glycosidase-Cleavable Linker to Reprogram Radiotheranostics” (bioRxiv, 2025)
Read-outs that look alike come from different tables or passages of the source.

Test: Ex vivo biodistribution screen of 111In-labeled DOTA-TATE derivatives in normal mice
Design: species or system athymic nude mice
Settings: 2 h post-injection; for tissue uptake at 2 h: athymic nude, mouse, iv, 1 ug per mouse, total radioactivity, normal athymic nude mice, mean; for Relative kidney retention, % rel. to DOTA-TATE: normal mice, 111In-DOTA-TATE set as 100%
Method: The panel of 10 compounds were then tested in an initial biodistribution screen of 9 organs assessed in non-tumor-bearing mice at specific timepoints following administration of the radioconjugates. Each agent was initially labeled with ^111In, a long-lived gamma-emitting radioisotope suitable for biodistribution studies, with high radiochemical yields and purity (Fig. S12). The compounds were then dosed (1.55 ± 0.12 MBq; 1 μg per mouse) in healthy athymic nude mice via intravenous (i.v.) injection in phosphate-buffered saline (PBS; vehicle). After 2 hours, the mice were sacrificed and ex vivo biodistribution analysis was performed (Fig. 2). […] This was an expected finding because this variant was designed to bind serum albumin.
Radiolabeling and In Vivo Evaluation of DOTA-TATE Variants:
Biodistribution, PET Quantification, and Dosimetry
Radiolabeling: To perform the initial biodistribution screen, radiolabeling of 10 compounds, including DOTA-TATE, was carried out using 111In (Cardinal Health, Arbutus, MD, USA), an affordable and readily available gamma -emitting radioisotope with a moderate half -life (2.83 days), which affords efficient DOTA radiolabeling and facilitates handling. 111InCl3 (28 – 36 MBq) was diluted with 0.4 M NH 4OAc buffer (pH 5.2) and combined with DOTA -TATE variants (20 μg). The solution was mixed well and then incubated at 90 °C for 30 min.
Radiolabeling efficiency and radiochemical purity were determined by radio -TLC and radio - HPLC. Radiochemical yield was >95% and the material was used without further purification.
The specific activity was 1.55 ± 0.12 TBq/g (41.9 ± 3.2 Ci/g). […]
Radio-instant thin-layer chromatography (radio-iTLC) was performed using silicic acid-impregnated glass microfiber paper strips (iTLC-SA, Varian, Lake Forest, CA, USA) as the stationary phase, and 50 mM EDTA in 100 mM NH4OAc (pH 5.5) as the mobile phase, analyzed with a radio-TLC scanner (AR-2000, Eckert-Ziegler, Wilmington, MA, USA). For Ac-225, equilibration was allowed for at least 12 hours before scanning the TLC strips to confirm initial scans. Radio-HPLC analysis (Agilent 1260 Infinity II, Agilent Technologies Inc., Santa Clara, CA, USA) was conducted on a TSK- Octadecyl-4PW column (5 µm, 4.6 mm ID × 15 cm, Tosoh
Co. Tokyo, Japan) with gradient elution using 0.1% trifluoroacetic acid in water as mobile phase A and 0.1% trifluoroacetic acid in acetonitrile as Mobile phase B. The elution sequence was 0-5 […]
PET imaging and biodistribution: For initial biodistribution screen studies, normal mice were administered 1.4 – 1.8 MBq (1 μg) of 111In-DOTA-TATE variants via tail vein injection and biodistribution studies were conducted at 2 hours post -injection (n = 2 – 4 per cohort).
For studies involving three variants (DOTA -TATE, DOTA-MVK(ε)-TATE, and DOTA-β-Gal-TATE), AR42J cells (5 × 10^6 cells per mouse) were subcutaneously inoculated into the right shoulder of the mice. Tumors were allowed to grow for 3 weeks, reaching a volume of 100 –200 mm³ before being used in subsequent experiments. For biodistribution or PET imaging studies, mice bearing subcutaneous AR42J tumors were administered 1.4 – 1.8 MBq (1 μg) of 111In-labeled DOTA-TATE variants or 2.7 – 4.9 MBq (1 μg) of 86Y-labeled DOTA-TATE variants via tail vein injection. Biodistribution studies with 111In-labeled DOTA -TATE variants were performed 1 hour post -injection (n = 3 per cohort), while studies with 86Y-labeled DOTA-TATE variants were conducted at 1, 4, and 24 hours post -injection (n = 3 per cohort). Mice were euthanized by CO2 asphyxiation, and 10 tissues, including tumors, were collected. All samples were weighed and counted on a gamma counter (2480 Wizard 3, Perkin Elmer Inc., Waltham, MA, USA). Results are presented as percentage of injected activity per gram (%IA/g) and mean values ± standard deviations.
PET imaging to assess the uptake of three 86Y-labeled DOTA-TATE variants (2.7 – 4.9 MBq, 1 […]

[1] = blood, i.v. 1 μg (1.4–1.8 MBq), ex vivo gamma counting, n = 2–4, read-out: Blood uptake
[2] = femur, i.v. 1 μg, ex vivo, n = 2–4, read-out: Femur uptake
[3] = heart, i.v. 1 μg, ex vivo, n = 2–4, read-out: Heart uptake
[4] = intestine, i.v. 1 μg, ex vivo, n = 2–4, read-out: Intestine uptake
[5] = liver, i.v. 1 μg, ex vivo, n = 2–4, read-out: Liver uptake
[6] = lung, i.v. 1 μg, ex vivo, n = 2–4, read-out: Lung uptake
[7] = muscle, i.v. 1 μg, ex vivo, n = 2–4, read-out: Muscle uptake
[8] = spleen, i.v. 1 μg, ex vivo, n = 2–4, read-out: Spleen uptake

Row | Structure (SMILES) | tissue uptake at 2 h [1] | tissue uptake at 2 h [2] | tissue uptake at 2 h [3] | tissue uptake at 2 h [4] | tissue uptake at 2 h [5] | tissue uptake at 2 h [6] | tissue uptake at 2 h [7] | tissue uptake at 2 h [8] | Relative kidney retention, % rel. to DOTA-TATE | tissue uptake at 2 h (in vivo, i.v. 1 μg (1.4–1.8 MBq), ex vivo gamma counting, n = 2–4, read-out: Blood uptake) | tissue uptake at 2 h (in vivo, i.v. 1 μg, ex vivo, n = 2–4, read-out: Femur uptake) | tissue uptake at 2 h (in vivo, i.v. 1 μg, ex vivo, n = 2–4, read-out: Heart uptake) | tissue uptake at 2 h (in vivo, i.v. 1 μg, ex vivo, n = 2–4, read-out: Intestine uptake) | tissue uptake at 2 h (in vivo, i.v. 1 μg, ex vivo, n = 2–4, read-out: Liver uptake) | tissue uptake at 2 h (in vivo, i.v. 1 μg, ex vivo, n = 2–4, read-out: Lung uptake) | tissue uptake at 2 h (in vivo, i.v. 1 μg, ex vivo, n = 2–4, read-out: Muscle uptake) | tissue uptake at 2 h (in vivo, i.v. 1 μg, ex vivo, n = 2–4, read-out: Spleen uptake)
1 | C[C@@H](O)[C@H](NC(=O)[C@@H]1CSSC[C@H](NC(=O)[C@@H](Cc2ccccc2)NC(=O)CN2CCN(CC(=O)O)CCN(CC(=O)O)CCN(CC(=O)O)CC2)C(=O)N[C@@H](Cc2ccc(O)cc2)C(=O)N[C@H](Cc2c[nH]c3ccccc23)C(=O)N[C@@H](CCCCN)C(=O)N[C@@H]([C@@H](C)O)C(=O)N1)C(=O)O [^111In-DOTA-TATE, metal not drawn, reference compound] | 0.04 %ID/g | 0.05 %ID/g | 0.03 %ID/g | 0.51 %ID/g | 0.09 %ID/g | 0.18 %ID/g | 0.01 %ID/g | 0.06 %ID/g |  |  |  |  |  |  |  |  | 
2 | CSCC[C@H](NC(=O)CN1CCN(CC(=O)O)CCN(CC(=O)O)CCN(CC(=O)O)CC1)C(=O)N[C@H](C(=O)N[C@@H](CCCCNC(=O)CCCC(=O)N[C@H](Cc1ccccc1)C(=O)N[C@H]1CSSC[C@@H](C(=O)N[C@H](C(=O)O)[C@@H](C)O)NC(=O)[C@H]([C@@H](C)O)NC(=O)[C@H](CCCCN)NC(=O)[C@@H](Cc2c[nH]c3ccccc23)NC(=O)[C@H](Cc2ccc(O)cc2)NC1=O)C(=O)O)C(C)C [^111In-DOTA-MVK(ε)-TATE, metal not drawn] | 0.15 %ID/g | 0.31 %ID/g | 0.11 %ID/g | 0.83 %ID/g | 0.16 %ID/g | 0.33 %ID/g | 0.06 %ID/g | 0.12 %ID/g | 67% |  |  |  |  |  |  |  | 
3 | C[C@@H](O)[C@H](NC(=O)[C@@H]1CSSC[C@H](NC(=O)[C@@H](Cc2ccccc2)NC(=O)CCCC(=O)Nc2cc(COC(=O)N(C)CCNC(=O)CN3CCN(CC(=O)O)CCN(CC(=O)O)CCN(CC(=O)O)CC3)ccc2O[C@@H]2O[C@H](CO)[C@H](O)[C@H](O)[C@H]2O)C(=O)N[C@@H](Cc2ccc(O)cc2)C(=O)N[C@H](Cc2c[nH]c3ccccc23)C(=O)N[C@@H](CCCCN)C(=O)N[C@@H]([C@@H](C)O)C(=O)N1)C(=O)O [^111In-DOTA-β-Gal-TATE, metal not drawn] |  |  |  |  |  |  |  |  | 67% | 0.04 %ID/g | 0.07 %ID/g | 0.03 %ID/g | 0.49 %ID/g | 0.11 %ID/g | 0.28 %ID/g | 0.02 %ID/g | 0.08 %ID/g
